According to doi:10.1101/528240 (bioRxiv, 2019):

Columns and labels:
[1] = target: GII.4 CHDC-1974 norovirus major capsid protein VP1, assembled as virus-like particles (VLPs) (human norovirus GII.4 (CHDC-1974)); assay: cryo-EM structure
[2] = target: the molecule itself; assay: cryo-EM structure

**Q.** For “GII.4 CHDC-1974 norovirus major capsid protein VP1, assembled as virus-like particles (VLPs) (natural protein)”, which stoichiometry N [1] is on record?
**A.** 240

B1: GII.4 NSW-2012 norovirus major capsid protein VP1, assembled as virus-like particles (VLPs) (natural protein, human norovirus GII.4 (NSW-2012), UniProt K4LM89 1-540, looked up)
chain: MKMASSDANPSDGSAANLVPEVNNEVMALEPVVGAAIAAPVAGQQNVIDPWIRNNFVQAPGGEFTVSPRNAPGEILWSAPLGPDLNPYLSHLARMYNGYAGGFEVQVILAGNAFTAGKVIFAAVPPNFPTEGLSPSQVTMFPHIVVDVRQLEPVLIPLPDVRNNFYHYNQSNDPTIKLIAMLYTPLRANNAGDDVFTVSCRVLTRPSPDFDFIFLVPPTVESRTKPFSVPVLTVEEMTNSRFPIPLEKLFTGPSSAFVVQPQNGRCTTDGVLLGTTQLSPVNICTFRGDVTHITGSRNYTMNLASQNWNDYDPTEEIPAPLGTPDFVGKIQGVLTQTTRTDGSTRGHKATVYTGSADFAPKLGRVQFETDTDRDFEANQNTKFTPVGVIQDGGTTHRNEPQQWVLPSYSGRNTHNVHLAPAVAPTFPGEQLLFFRSTMPGCSGYPNMDLDCLLPQEWVQYFYQEAAPAQSDVALLRFVNPDTGRVLFECKLHKSGYVTVAHTGQHDLVIPPNGYFRFDSWVNQFYTLAPMGNGTGRRRAV
**Q.** For B1, which “stoichiometry N” value [2] is on record?
**A.** 240
